Patent US20210371517A1
Read-outs that look alike come from different tables or passages of the source.

Columns and labels:
Assay in all cases: cell-based or functional assay
CD171 (L1CAM) (human) [1] = target: CD171 (L1CAM) (human) (UniProt P32004)
CD171 (L1CAM) (human) [2] = target: CD171 (L1CAM) (human) (UniProt P32004); remark: listed apart in the source
Fas (CD95) (human) = Fas (CD95) (human) (UniProt P25445)
Sequence of UniProt P25445 (P25445 26-335): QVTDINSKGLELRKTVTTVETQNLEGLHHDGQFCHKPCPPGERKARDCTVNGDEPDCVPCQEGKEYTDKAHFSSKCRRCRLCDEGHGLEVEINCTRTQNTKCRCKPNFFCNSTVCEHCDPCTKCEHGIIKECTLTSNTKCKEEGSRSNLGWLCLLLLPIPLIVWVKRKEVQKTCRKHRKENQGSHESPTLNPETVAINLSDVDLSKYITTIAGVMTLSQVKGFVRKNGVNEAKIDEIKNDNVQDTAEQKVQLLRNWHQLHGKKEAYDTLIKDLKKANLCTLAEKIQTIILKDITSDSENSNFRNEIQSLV

Sequence of CE7scFv-IgG4hinge-CD28tm/cyto-4-1BB-zeta (short) CD171-specific chimeric receptor with two costimulatory domains (main): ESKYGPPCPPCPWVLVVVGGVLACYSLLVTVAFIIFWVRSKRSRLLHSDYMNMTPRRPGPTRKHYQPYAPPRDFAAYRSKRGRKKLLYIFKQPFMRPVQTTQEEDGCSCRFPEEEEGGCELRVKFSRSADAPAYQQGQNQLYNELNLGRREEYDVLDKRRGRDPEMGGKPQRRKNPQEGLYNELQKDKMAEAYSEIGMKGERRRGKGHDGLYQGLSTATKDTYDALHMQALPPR
Sequence of UniProt P32004 (P32004 20-1257): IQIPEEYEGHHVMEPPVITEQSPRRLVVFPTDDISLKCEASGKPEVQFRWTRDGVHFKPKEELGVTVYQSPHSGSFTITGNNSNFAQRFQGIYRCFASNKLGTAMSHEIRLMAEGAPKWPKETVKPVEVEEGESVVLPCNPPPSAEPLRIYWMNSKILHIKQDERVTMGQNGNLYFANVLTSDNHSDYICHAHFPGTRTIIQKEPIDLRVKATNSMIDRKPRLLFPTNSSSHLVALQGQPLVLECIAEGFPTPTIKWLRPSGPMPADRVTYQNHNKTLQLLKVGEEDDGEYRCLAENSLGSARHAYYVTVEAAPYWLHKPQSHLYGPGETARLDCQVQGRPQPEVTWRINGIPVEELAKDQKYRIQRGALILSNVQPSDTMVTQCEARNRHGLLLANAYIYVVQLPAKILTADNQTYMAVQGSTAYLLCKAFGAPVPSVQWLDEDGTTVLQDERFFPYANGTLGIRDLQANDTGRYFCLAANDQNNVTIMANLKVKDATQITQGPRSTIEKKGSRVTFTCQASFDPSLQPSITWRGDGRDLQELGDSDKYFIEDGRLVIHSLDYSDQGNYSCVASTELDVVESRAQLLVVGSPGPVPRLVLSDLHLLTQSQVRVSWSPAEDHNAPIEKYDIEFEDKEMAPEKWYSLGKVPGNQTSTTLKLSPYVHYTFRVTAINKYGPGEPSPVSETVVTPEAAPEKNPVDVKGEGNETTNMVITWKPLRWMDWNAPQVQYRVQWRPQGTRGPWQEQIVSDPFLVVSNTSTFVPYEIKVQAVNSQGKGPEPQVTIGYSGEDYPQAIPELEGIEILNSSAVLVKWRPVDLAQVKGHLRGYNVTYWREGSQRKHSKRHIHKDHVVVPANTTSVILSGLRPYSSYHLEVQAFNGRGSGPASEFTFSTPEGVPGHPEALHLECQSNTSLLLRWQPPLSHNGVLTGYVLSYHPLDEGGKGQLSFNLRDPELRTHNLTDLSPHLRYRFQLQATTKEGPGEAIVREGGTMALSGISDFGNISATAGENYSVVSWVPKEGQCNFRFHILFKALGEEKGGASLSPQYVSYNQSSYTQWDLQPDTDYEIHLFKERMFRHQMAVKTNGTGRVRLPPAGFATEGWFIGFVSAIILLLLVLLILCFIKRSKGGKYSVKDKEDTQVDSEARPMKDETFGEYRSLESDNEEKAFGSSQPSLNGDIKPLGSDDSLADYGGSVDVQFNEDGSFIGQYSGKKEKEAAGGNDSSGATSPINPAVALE

Row | Substance | % CD25+CD69+ T cells after round III of tumor cell co-culture (CD171 (L1CAM) (human) [1]) | % CD25+CD69+ T cells after round III of tumor cell co-culture (CD171 (L1CAM) (human) [2]) | % CD25+CD69+ T cells, stress test round I with Be2 cells (CD171 (L1CAM) (human) [2]) | % CD25+CD69+ T cells, stress test round II with Be2 cells (CD171 (L1CAM) (human) [2]) | % CD25+CD69+ T cells, stress test round III with Be2 cells (CD171 (L1CAM) (human) [2]) | IL-2 secretion in Be2 co-culture, fold over 2G-CAR(SS) (CD171 (L1CAM) (human) [2]) | TNF-α secretion in Be2 co-culture, fold over 2G-CAR(SS) (CD171 (L1CAM) (human) [2]) | cytolytic activity against Be2 targets, fold over 2G-CAR(SS) (CD171 (L1CAM) (human) [2]) | induction of CD137 expression upon tumor contact, fold over 2G-CAR(SS) (CD171 (L1CAM) (human) [2]) | IFN-γ secretion in Be2 co-culture, fold over 2G-CAR(SS) (CD171 (L1CAM) (human) [2]) | percentage of cells expressing activation marker CD137, fold over CD171-CAR(SS) (CD171 (L1CAM) (human) [2]) | phospho-ERK level after co-culture with CD171+ Be2 cells, fold over CD171-CAR(SS) (CD171 (L1CAM) (human) [2]) | T cell viability of 2G-CAR(LS) CTLs after round III following siRNA knockdown of Fas, fold increase (Fas (CD95) (human)) | T cell viability of 2G-CAR(LS) CTLs after round III following siRNA knockdown of FasL, fold increase (Fas (CD95) (human))
1 | CE7scFv-IgG4hinge-CD28tm/4-1BB-zeta (short) CD171-specific chimeric receptor | 42% | 40% | 46.8% | 47.6% | 42.1% | – | – | – | – | – | – | – | – | –
2 | CE7scFv-IgG4hinge-CD28tm/cyto-4-1BB-zeta (short) CD171-specific chimeric receptor with two costimulatory domains | – | 60% | – | – | – | 5.1 fold | 2.5 fold | 1.3 fold | 8.4 fold | – | – | – | – | –
3 | Ce7scFv-IgG4hinge-CH2-CH3-CD28tm/4-1BB-zeta (long construct) CD171-specific chimeric receptor | 66% | – | 79.4% | 74% | 65.7% | 6.3 fold | 6.1 fold | – | – | 8.4 fold | 5.7 fold | 3.1 fold | – | –
4 | Fas ligand (FasL, CD178) (from UniProt P48023 1-281) | – | – | – | – | – | – | – | – | – | – | – | – | 1.4 fold | 1.6 fold
